The supplement of paper PMC9170038

What follows are sequences tested on K4 kissing-loop RNA reporter (assay: apparent KD of K4 kissing-loop reporter; higher = weaker reporter binding). Settings: Eterna round: R107; input ligand: none.
Protocol: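 RNA-MaP round R107: designed RNA switches with theophylline, tryptophan, arginine or FMN aptamers are transcribed on-chip within common flanks. They are titrated with a labelled K4 kissing-loop RNA reporter in RNA-MaP buffer (100 mM Tris pH 7.5, 80 mM KCl, 4 mM MgCl2), without ligand or with the indicated ligand. Median apparent KD per design.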
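Further: bound reporter read as fluorescence of individual clusters on recovered sequencing chips by microscopy, with normalized cluster intensities fitted with a binding model.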

In order of falling “apparent KD of K4 kissing-loop reporter” value:
1. GCCAGGCAUCUGCAGAGUGAUGUUCAAAAGCGAGGACCGGUACGGCCGCCACUCGAAAGCAGAUGCCUGGGCGUACAAAGUACGC [idea]  984 nM
2. AGACUUCACCGAAGGAGCGACGUAGCCUAGUGAUGUUAGGCACGAGAGAAAUCUCGUGUACGUCAGGUAGGUCGCGGUGAAGUCA [Omei KL Arginine B SS C v5]  961 nM
3. UGAUACCAGACGGCCGCCACUCCCGUAAGUCAAAGACUUACGAAGAGAGUUUUUCAGUGAUGUUGGAGGACCGGGUCUGGUAUCU [FiskerMod 16 - Jieux - Exclusion - Tryptophan B]  870 nM
4. UUUUAGGUAUCUGAUACCAGAGAAAAUAUAUGUAGUGAUGUUAUAUACAAAAUAAUUAAGCUCCCUUGGCAGCAGUAUUAAUUUU [AstrosExc-TheB#3]  854 nM
5. UGCGCUGUGUACUGAAAUGUUCUGCGGGAUACCAGAGUCUUUUUAUUCCCUUGGCAGCUUGAGUGAUGUUUGAUGCCGUUCUUGU [tffeymullin]  513 nM
6. GAAUUAUGUAGAAGGAGCGUUAGAAGGUAUAGGUGCGAGUGAUGUUUGGACUUGUUAAUUUGACAGGUAGGUCGCUACAGAAGGA [KL-SSArg B19 #analogue]  499 nM
7. CGUUUAGUGAUGUUAAGCGUCCACUACGAUACCAGAACUAUAACCUUCCCUUGGCAGCGUUUAUAUUGUAACUCAUGUGUUAAUU [theeternabot_exclusion_KL_Theo_A_11]  474 nM
8. UGAUAGGACAGAAGGAGCGGUAGUGAUGUUGCCAAAAGAAUAAGGUGUCAAAAGACACCCUACCAGGUAGGUCGCUGUCCUAUCU  423 nM
9. GUACGCUUCCGAGUGAUGUUCGGUAAUAGUUAGGAUAUCGUUUUUUCGAGAAGGAACUGAAUGAGGAAACUCGUUCGAAGUGUAC [FMN A 16]  380 nM
10. UAGAGAUCGAGAAGGAGCGAGAAAGCUAGUACAUAUGUACUAGCAAAGCAGUGAUGUUGCACUCAGGUAGGUCGCUCGAUCUCAU [AK1.1 SS Arginine B]  366 nM
11. GGAUCCACCAGUGAUGUUGGAGAAAACUCUAAGGAUAUGACGAAAGUCAGAAGGUGGUAGACUGGACAAAGUCCGGUGGGAUCCA [FmnA10 U30+G78]  350 nM
12. UAAUGCAUGACGGCCGCCACUAGUACUGGAGUGAUGUUGUGGUACGGCGGCAGUUUAGGGUGGACUAGGACCGGGUCAUGCAUAU [KL-XTryp-B10 #analogue]  339 nM
13. AUCUGUCAAGGACAACAUUACUGAGGUGAUACCAGCAUCGAAAGAUGCCCUUGGCAGCACCAACUUGCAGUGAUGUUGCAAGUAA [BrourdMod 10 - Jieux - Exclusion - Theophylline A]  332 nM
14. CCUAUCUCAUACGAUACCAGUCAACGAGUGAUGUUCGAAUAAAUAAAUUUGCCAAAUAAUGACCCUUGGCAGCGUAUGGGAUAGG [Ex Theophylline B K4 15]  329 nM
15. UUGAGCCUGACGCAAGUCAGGCUCUGCGAGCGAGGACCGGUACGGCCGCCACUCGGUGCAGUGAUGUUGCAUGGCCGCAAGGCCG [#2 Exclusion - Tryptophan A Attempt #17 (HarryS)]  318 nM
16. CAAUGAGUAUAAGAUGAUAUCAUAACAGAAGGAGCGAGUGAUAACUCAGGUAGGUCGCUGAAUUUAUCGAGUGAUGUUCGAUAGA [whbob_SS_Arginine_A_sa117]  226 nM
17. GUCCCGAGUGAUGUUCGGGUCGUUUGGGAAGGAGCGCCCGGAAGGGCAGGUAGGUCGCCCGGACCGUGCAGGUAACUGUGCGGCC [#2 Same State - Arginine A Attempt #18 (HarryS)]  181 nM
18. AUUGAUAUAUAUAUUUGAUUUUUAUGUGAUACCAGACAAGGCAUAGUCCCUUGGCAGCACUUUAUAUUUACGAGUGAUGUUCGUA [JR_SSTheophyA_Sub025]  180 nM
19. GCCGUACGCAUGGAUACCAGAGAUGUUAGUCUCGAUGCCAGUGAUGUUGGCUAUAGCAUACUCCCUUGGCAGCCAUGCGUACGGC  128 nM
20. CGCAGUGAUGUUGCGAGUUUAUUCAGGGAAGGAGCGCCACAGAUGGCAGGUAGGUCGCCCACGCAGUGAUGUUGUGUAUUCGGGU [Exclusion Arginine A GF 3]  127 nM
21. GCCGUAGAUGGAAGGAGCGAGGUAGACUGUUGAAGUGAUGUUUCAACUCAUUAAGCCCAACCUCAGGUAGGUCGCCAUCUACGGC  115 nM
22. UGCACGGGCUCGGCCGCCACUCCCGCGGGUCGGAAGGUCCGCUACUGAGUGAUGUUCGGUUGGAGGAGGACCGGGAGCCCGUGCA [#2 Exclusion - Tryptophan B Attempt #26 (HarryS)]  104 nM

Same assay, conditions: Eterna round: R107; input ligand: theophylline 20 uM

In order of rising “apparent KD of K4 kissing-loop reporter” value:
1. AAGUGAUGUUGUAGUGAUGUUGUGAUGUUGCAGGAUAUAUAGUGAUGUAGAAGGGUAUGUGCAGUUUUCUUUUUUGAGUGUUGAU [aavamullin]  43.7 nM
2. UGACAUUGCUCAGAUACCAGACCUGAGGAUCACCCGGGUGCCAAACGUACAAUAAUAAAGGUCCCUUGGCAGCUGAGCAAUGUCU [TheoBX 14]  68.4 nM
3. GGUAGCAUGGCGGCCGCCACUUAUGUUCACAUAGUGAUGUUAUGUUCACAUUUAUGGCCCUGCUUAAGGACCGGGCCAUGCUACC  82.1 nM
4. UGGGAUUUGUCAGGAUAUGAGUGCAGUGAUGUUGCACUUAAUAAAGUACAUAGGCCCUGCUGGCACUCAGAAGGGACGGUGAUGC [Lalasobeer]  86.7 nM
5. UCGGACCCUGGAGGAUAUGAGUCUAGUGAUGUUAGGCGGUCCAUGCGCGUGGCGCGUUAUGCCCUUUUAGAAGGCCAGGGUCCGA [#2 Exclusion - FMN B Attempt #15 (HarryS)]  90.7 nM
6. ACGUAGUUCUAGGAUACCAGCCAAGAAGCCAGGACAAAAGUCCUGGCUGCCAGUGAUGUUGGCCCUUGGCAGCCUAGAACUACGA [Omei KL Theo B Exc B v10]  109 nM
7. GCCGUAGAUGGAAGGAGCGAGGUAGACUGUUGAAGUGAUGUUUCAACUCAUUAAGCCCAACCUCAGGUAGGUCGCCAUCUACGGC  118 nM
8. CGCAGUGAUGUUGCGAGUUUAUUCAGGGAAGGAGCGCCACAGAUGGCAGGUAGGUCGCCCACGCAGUGAUGUUGUGUAUUCGGGU [Exclusion Arginine A GF 3]  128 nM
9. CAGGCCGAGUGAUGUUCGGUCUGAGUGAUAAAGGAUAUAAGGGAUUUUAGAAGGUUAUCUAAACAGACCAAACAUCUAUCCACUC [theeternabot_exclusion_KL_FMN_A_16]  145 nM
10. GGUUCGAGUGAUGUUCGGGUCGAUUGGGAAGGAGCGCCCGGAAGGGCAGGUAGGUCGCCCGGGCCGCGCGGGAAACCGCGCGUCC [#2 Same State - Arginine A Attempt #7 (HarryS)]  147 nM
11. ACUAAGGUUUUUGGAGCAGUGAUGUUGCUCCGAGGACCGGUACGGCCGCCACUCGGUGCAUGUAUGCGCUUCACUCCGGAAGUUG [Bieron]  148 nM
12. AUUGAUAUAUAUAUUUGAUUUUUAUGUGAUACCAGACAAGGCAUAGUCCCUUGGCAGCACUUUAUAUUUACGAGUGAUGUUCGUA [JR_SSTheophyA_Sub025]  187 nM
13. CAAUGAGUAUAAGAUGAUAUCAUAACAGAAGGAGCGAGUGAUAACUCAGGUAGGUCGCUGAAUUUAUCGAGUGAUGUUCGAUAGA [whbob_SS_Arginine_A_sa117]  193 nM
14. UGUGGAGGAUAUGAUACCAGCAGUGAGAGAGAGGAAGUAUAGUGAUGUUAUAUGAGAGAAUGCCCUUGGCAGCGUAUGUAGUAGG [SSTheophylB.I]  208 nM
15. UCCUGCAAUCUGCCACGAAAGUGGGUUGAUACCAGAGUCGAAAGACUCCCUUGGCAGCGAGUGAUGUUCGUUGCAGGUGUAUAAA [MatMod 10 - Jieux - Exclusion - Theophylline A]  209 nM
16. AACUGUCAAGGACAACAUUACUGAGGUGAUACCAGCAUCGAAAGAUGCCCUUGGCAGCACCAACUUGCAGUGAUGUUGCAAGUAA [Design6]  279 nM
17. UAAUGCAUGACGGCCGCCACUAGUACUGGAGUGAUGUUGUGGUACGGCGGCAGUUUAGGGUGGACUAGGACCGGGUCAUGCAUAU [KL-XTryp-B10 #analogue]  305 nM
18. AGUAGAGCAUCAGAUACCAGACAGAACUGAUGGUAAGGAGUGAUGUUCCUUAAUCAGCUUGUCCCUUGGCAGCUGAUAGUAGUCA [#14 K4 Theophylline B Same State]  348 nM
19. UUCUACGAGUGAUGUUCGUAGUGUAUUCACUAGGAUAUCGUUUUUUCGAGAAGGAGUGAGGAAGUGAUACGAAAGUAUCGCUUCC [FMN A 15]  361 nM
20. CAACCGUAACACGAUACCAGCCUAGAAGCCAGUGAUGUUGGCCUUUUUUCGGAAAUGAAAGGCCCUUGGCAGCGUGGAUAAAAUG [Lelabiised]  379 nM
21. GAAUUAUGUAGAAGGAGCGUUAGAAGGUAUAGGUGCGAGUGAUGUUUGGACUUGUUAAUUUGACAGGUAGGUCGCUACAGAAGGA [KL-SSArg B19 #analogue]  379 nM
22. UUGAGCCUGACGCAAGUCAGGCUCUGCGAGCGAGGACCGGUACGGCCGCCACUCGGUGCAGUGAUGUUGCAUGGCCGCAAGGCCG [#2 Exclusion - Tryptophan A Attempt #17 (HarryS)]  394 nM
23. GAUCUGAACGAAAGUUCGGAUCAGUCCGAUACCAGUAUGGAUUCAUACCCUUGGCAGCGGAAAUCUGCUAUGGAGUGAUGUUCCU [Theophylline A K4 13]  396 nM
24. GGGUGGCAGACGGCCGCCACUCUUAGCAGCCAGUGAGUGAUGUUCGUGGCGGAGUGAUGUUCCUAGAGGACCGGGUUUGUUGUUC [Same State Tryptophan B GF 20]  412 nM
25. UGAUAGGACAGAAGGAGCGGUAGUGAUGUUGCCAAAAGAAUAAGGUGUCAAAAGACACCCUACCAGGUAGGUCGCUGUCCUAUCU  429 nM
26. AGUGAACGAGCGGCCGCCACUAACUGAGUGAUGUUCGUGAGUAGUGCUGUUCUCAUGAUUGUUUUUAGGACCGGGUUCGAUGUUG [ttbjmullin]  431 nM
27. UGCGCUGUGUACUGAAAUGUUCUGCGGGAUACCAGAGUCUUUUUAUUCCCUUGGCAGCUUGAGUGAUGUUUGAUGCCGUUCUUGU [tffeymullin]  521 nM
28. GCCAGGCAUCUGCAGAGUGAUGUUCAAAAGCGAGGACCGGUACGGCCGCCACUCGAAAGCAGAUGCCUGGGCGUACAAAGUACGC [idea]  562 nM
29. CGCAGUGAUGUUGCUUAUAUUCUUGGUUAACGAGGACCGGUACGGCCGCCACUCGAUUUCUAACUAUUCCAGUGUUAAUUUGAGU [JR_ExcTryptoA_Sub006]  564 nM
30. UUAGUAUAGAGAGGAUAUACCUUCCAGUGAUGUUGGAUAGAUGAAUUUAAUCAUCAAGCAUAGCUUGUAGAAGGCUCUAUACAUU [AK1 SS FMN B]  637 nM
31. UUUAUAAUGUCGGCCGCCACUGGAUUAAUAUUUGUAUAAUCUAGUUCUGAGUGAUGUUUAGAGUCCAGGACCGGGACAUUUGUUA [#10 K4 Tryptophan B Exclusion]  788 nM
32. UUUUAGGUAUCUGAUACCAGAGAAAAUAUAUGUAGUGAUGUUAUAUACAAAAUAAUUAAGCUCCCUUGGCAGCAGUAUUAAUUUU [AstrosExc-TheB#3]  917 nM
